Experimental data taken from US20210047428A1.

Experiments:
[1] = target: HEL R21Q R73E L75A D101R (self with foreign 75) (hen) (UniProt P00698); test: BLI, Fab on streptavidin sensor
[2] = target: duck egg lysozyme (DEL), soluble recombinant (duck) (UniProt P00705); test: BLI, Fab on streptavidin sensor
[3] = target: HEL R21Q R73K L75A D101R (self with foreign 73, 75) (hen) (UniProt P00698); test: BLI, Fab on streptavidin sensor
[4] = target: HEL^3X (hen egg lysozyme R21Q, R73E, D101R), soluble recombinant (hen) (UniProt P00698); test: BLI, Fab on streptavidin sensor
[5] = target: HEL R21Q R73K D101R (self with foreign 73) (hen) (UniProt P00698); test: BLI, Fab on streptavidin sensor
[6] = target: HEL R21Q G71R R73K L75A N77G D101R (self with foreign 71, 73, 75, 77) (hen) (UniProt P00698); test: BLI, Fab on streptavidin sensor
[7] = target: HEL^3X (hen egg lysozyme R21Q, R73E, D101R), soluble recombinant (hen) (UniProt P00698); test: BLI; against WT HyHEL10 on HEL^3X
[8] = target: HEL R21Q R73E L75A D101R (self with foreign 75) (hen) (UniProt P00698); test: BLI; against I29F Fab on DEL
[9] = target: duck egg lysozyme (DEL), soluble recombinant (duck) (UniProt P00705); test: BLI; against I29F Fab on DEL
[10] = target: HEL R21Q R73K L75A D101R (self with foreign 73, 75) (hen) (UniProt P00698); test: BLI; against I29F Fab on DEL
[11] = target: HEL^3X (hen egg lysozyme R21Q, R73E, D101R), soluble recombinant (hen) (UniProt P00698); test: BLI; against I29F Fab on DEL
[12] = target: HEL R21Q R73K D101R (self with foreign 73) (hen) (UniProt P00698); test: BLI; against I29F Fab on DEL
[13] = target: HEL R21Q G71R R73K L75A N77G D101R (self with foreign 71, 73, 75, 77) (hen) (UniProt P00698); test: BLI; against I29F Fab on DEL
[14] = target: duck egg lysozyme (DEL), soluble recombinant (duck) (UniProt P00705); test: BLI; against WT HyHEL10 on DEL
[15] = target: HEL^3X (hen egg lysozyme R21Q, R73E, D101R), soluble recombinant (hen) (UniProt P00698); test: BLI (BLItz), biotinylated Fab on streptavidin biosensor, soluble monomeric HEL3X, global fit
[16] = target: duck egg lysozyme (DEL), soluble recombinant (duck) (UniProt P00705); test: BLI (BLItz), biotinylated Fab on streptavidin biosensor, soluble monomeric DEL 0.03-0.25 µM, global fit
[17] = target: duck egg lysozyme (DEL), soluble recombinant (duck) (UniProt P00705); test: BLI (BLItz), biotinylated Fab on streptavidin biosensor, soluble monomeric DEL, global fit
[18] = target: duck egg lysozyme (DEL), soluble recombinant (duck) (UniProt P00705); test: BLI; affinity for DEL against affinity for HEL^3X
[19] = target: HEL^3X (hen egg lysozyme R21Q, R73E, D101R), soluble recombinant (hen) (UniProt P00698); test: BLI, highest concentration of HEL^3X tested
[20] = target: duck egg lysozyme (DEL), soluble recombinant (duck) (UniProt P00705); test: BLI
[21] = target: HEL^3X (hen egg lysozyme R21Q, R73E, D101R), soluble recombinant (hen) (UniProt P00698); test: BLI
[22] = target: duck egg lysozyme (DEL), soluble recombinant (duck) (UniProt P00705); test: BLI (BLItz), biotinylated Fab on streptavidin biosensor, soluble monomeric DEL 0.025-0.25 µM, global fit
[23] = target: duck egg lysozyme (DEL), soluble recombinant (duck) (UniProt P00705); test: BLI (BLItz), biotinylated Fab on streptavidin biosensor, soluble monomeric DEL 0.03-0.5 µM, global fit
[24] = target: HEL^R21Q,R73E,C76S,C94S (HEL^2X-flex) (hen) (UniProt P00698); test: BLI (Example 10)

Substance	Kd [2] [nM]	Kd [4] [nM]	Fold change [7] [fold]	ΔΔG apparent [7] [kcal/mol]	Fold change [14] [fold]	ΔΔG apparent [14] [kcal/mol]	Ka [17] [M⁻¹]	Kd [17] [nM]	also measured
HyHEL10 Fab I29F	15	880	-10.5	1.4	2.6	-0.6	–	–	Kd [1]: 856 nM; Kd [3]: 28 nM; Kd [5]: 350 nM; Kd [6]: 32 nM; Fold change [8]: -54.5 fold; Fold change [9]: 0 fold; Fold change [10]: -1.8 fold; Fold change [11]: -56.1 fold; Fold change [12]: -22.3 fold; Fold change [13]: -2 fold; Ka [15]: 1.1e+06 M⁻¹; Kd [15]: 880 nM; Ka [16]: 6.4e+07 M⁻¹; Kd [16]: 16 nM
HyHEL10 Fab I29F/S52T	6	–	–	–	–	-1.1	1.7e+08	5.8	–
HyHEL10 Fab I29F/S52T/Y53F	0.164	807	-9.6	1.3	245	-3.3	6.1e+09	0.16	fold differential binding to foreign (DEL) over self (HEL^3X) [18]: 5000 fold
HyHEL10 Fab I29F/S52T/Y58F	2	–	–	–	23.8	-1.9	–	–	–
HyHEL10 Fab I29F/Y53F	1	–	–	–	–	-2.2	9.7e+08	1	–
HyHEL10 Fab S52R	–	–	–	–	–	–	–	–	fold lower affinity against unmutated HyHEL10 [19]: > 100 fold
HyHEL10 Fab S52R/Y53F	–	–	–	–	–	–	–	–	fold lower affinity against unmutated HyHEL10 [19]: > 100 fold
HyHEL10 Fab S52T	33	–	–	–	1.2	-0.1	3e+07	34	–
HyHEL10 Fab S52T/Y53F	3.6	152	-1.8	0.3	1.1	-1.4	2.8e+08	3.6	–
HyHEL10 Fab S52T/Y53F/Y58F	0.5	24	3.5	-0.7	80	-2.6	1.99e+09	0.5	fold lower affinity than the I29F-S52T-Y53F trio [20]: 3 fold; fold increase of affinity against unmutated HyHEL10 [21]: 4 fold
HyHEL10 Fab S52T/Y58F	3	–	–	–	–	–	3.8e+08	2.6	–
HyHEL10 Fab Y53F	8	–	–	–	4.8	-0.9	–	–	Ka [22]: 1.2e+08 M⁻¹; Kd [22]: 8.4 nM
HyHEL10 Fab Y58F	11	–	–	–	–	-0.8	9.4e+07	11	–
HyHEL10 Fab, wild-type	40	84	0	0	0	0	–	–	Ka [23]: 2.5e+07 M⁻¹; Kd [23]: 40 nM; Ka [24]: 1.6e+07 M⁻¹; Ka [15]: 1.2e+07 M⁻¹; Kd [15]: 84 nM
